Measurements: the supplement of paper PMC10724198
± gives the standard deviation of the averaged measurements.

Tested on: Saccharomyces cerevisiae
Test: protein stability index of tFT-peptide fusion (C-terminal peptide) (PSI (0-1 scale)); higher = more stable (slower turnover)
Settings: genetic background: wild type; temperature: 30 C
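Note: PSI is a weighted mean of sequencing reads over stability bins, variants kept only with over 10 reads, mCherry proximal and sfGFP distal, peptide attached via GGGS linker.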

Sequence | protein stability index
PIAASAPPLCPR | 0.692 ± 0.014
LFSPPPPPIPSP | 0.73 ± 0.0078
VQAWYWGFFCST | 0.785 ± 0.036
GPSPFCTIRLKN | 0.655 ± 0.018
LFLTPTSPVAAL | 0.651 ± 0.065
PPPPRRAPPPGT | 0.699 ± 0.021
VSGFFFWRSSFV | 0.678 ± 0.028
TKRRRKRRGAKK | 0.672 ± 0.014
VRGKYNNGNKKM | 0.675 ± 0.013
KRGRISKKRDSS | 0.759 ± 0.017
LPPAFRIPHTWY | 0.71 ± 0.0071
YPHAGSTSLLLF | 0.685 ± 0.0073
AIRENISIRLNC | 0.482 ± 0.026
PPPPPPSLPPPS | 0.714 ± 0.015
GFYAWAISYLWQ | 0.509 ± 0.0086
PPPLPRPRSTAL | 0.674 ± 0.043
VRQSCGSRGFFF | 0.729 ± 0.023
CTFCLGSATVRT | 0.702 ± 0.04
DVESGRVDLGEE | 0.787 ± 0.15
LFLARLSGHFGA | 0.728 ± 0.16
GASSPVEVGAAG | 0.695 ± 0.022
NSVWPGYPCTHP | 0.639 ± 0.03
PLRAHLYRPSVP | 0.69 ± 0.03
SPGARRRGGAGR | 0.659 ± 0.047
NTSKEDENKARI | 0.707 ± 0.019
RKSPRDTGLQRA | 0.706 ± 0.19

Sequence | protein stability index
WCGKVVVGSRQG | 0.68 ± 0.032
VCVCSVPNLGLW | 0.675 ± 0.029
KKTIENEGRNIL | 0.645 ± 0.0069
DPPSVPSPLPTS | 0.689 ± 0.016
PWGSGSDRAGRG | 0.746 ± 0.062
FVHEHQPRHEST | 0.677 ± 0.028
LTFFRSSPPRPY | 0.739 ± 0.031
KLGWSVTRAEVN | 0.687 ± 0.017
SLFGMACDGGLP | 0.6873 ± 0.0043
RKLAEVNCTVKV | 0.664 ± 0.036
WRVVTPPSVDHR | 0.677 ± 0.015
LFSSPPSLPPPL | 0.739 ± 0.036
DAGWTRGGEGVW | 0.739 ± 0.032
VITFPAFLPISN | 0.702 ± 0.017
DGGAGWLGLLGG | 0.713 ± 0.034
RLVSIHDTRESL | 0.727 ± 0.012
GEGHVRCCFSLR | 0.699 ± 0.013
GVGWVWGGVWAG | 0.744 ± 0.045
AGVLTRGNCCGG | 0.6885 ± 0.005
GGRRHQRARLPL | 0.605 ± 0.018
VGFGEGCLSFPF | 0.668 ± 0.072
PVVFAGLLLHGH | 0.694 ± 0.042
LGQAVGAVGVEV | 0.64 ± 0.072
TWGLGVFSIMDC | 0.633 ± 0.052
CILPVLRGMSPA | 0.616 ± 0.011
LHLPPPLPSTLP | 0.671 ± 0.012

Sequence | protein stability index
VTLRASGQVFPF | 0.7891 ± 0.0069
PSRRPPLPLPRP | 0.714 ± 0.013
HVTLGRGGVGPN | 0.681 ± 0.02
VLGFGSVPAWIE | 0.776 ± 0.048
PQPLNTLRLTSS | 0.671 ± 0.034
APTPPPPLSPRS | 0.69 ± 0.034
IVPFLLFYSPPA | 0.719 ± 0.055
CGFCVCWSGVAL | 0.72 ± 0.045
VFGPRSIARGAI | 0.727 ± 0.12
SWLGGIGGNEMV | 0.726 ± 0.011
SSPLPPAPPTAS | 0.587 ± 0.1
GRVFDTNGIGLG | 0.694 ± 0.074
GYGWGVGWGFGR | 0.673 ± 0.028
LGIRFPLSNELI | 0.867 ± 0.15
PVLGRTLAFRSL | 0.659 ± 0.057
LCGYAMSFRPLG | 0.73 ± 0.091
SRGGSGKDTGRT | 0.657 ± 0.04
HHGCATVTSRAS | 0.654 ± 0.042
LTYVQPTKGTLG | 0.654 ± 0.05
PCRANRRLVTSP | 0.628 ± 0.056
LDEQIKIRIKEK | 0.721 ± 0.046
KKIYEKRKKLRK | 0.756 ± 0.057
GALEMNVCVPWL | 0.65 ± 0.017
SCHGGWFLHVFT | 0.645 ± 0.018
QKKKKEKQKKKG | 0.692 ± 0.023
FSSRLVFFFAAP | 0.667 ± 0.036

Sequence | protein stability index
RGVGFMGEGVTW | 0.656 ± 0.069
VGTSVTSSFRGK | 0.591 ± 0.078
GPRIVVLKDVII | 0.6403 ± 0.0063
RCPRRASSPTLS | 0.843 ± 0.17
FDLPPCVPRARP | 0.767 ± 0.099
IYSPLSPSTAPA | 0.664 ± 0.012
LFCLCYDVCVPS | 0.662 ± 0.035
SPPSLYRRVRPS | 0.63 ± 0.084
GSPPSSLTADSA | 0.683 ± 0.017
LRPVPLCPAALL | 0.695 ± 0.037
VHPRFSFGPHFV | 0.7027 ± 0.00094
DSTMWDALSVCV | 0.621 ± 0.026
GVGFGGGGVWME | 0.746 ± 0.031
ITTNTESSRQSY | 0.702 ± 0.014
AVGGVFVSSGGL | 0.691 ± 0.013
RLPCPLRSRALS | 0.626 ± 0.03
ADKNQQTVNWRR | 0.6956 ± 0.0019
VRIGSEGPGREE | 0.677 ± 0.03
YLFSLSSSLFIL | 0.56 ± 0.0085
FESTIKNINNSI | 0.714 ± 0.011
CFMGCAKRVTLI | 0.561 ± 0.039
CSSACPPPPPAT | 0.733 ± 0.014
VLWLPPSPTPNL | 0.721 ± 0.1
